Results reported in paper PMC9674853, “Biasing the conformation of ELMO2 reveals that myoblast fusion can be exploited to improve muscle regeneration” (Nature Communications, 2022).

Biological target: T1, murine ELMO2 full-length, wild type (mouse, UniProt Q8BHL5 1-732)
T1 construct: ELMO2, murine cDNA cloned into pGEX4T1; called full-length in the ITC methods; Thrombin was added to the glutathione eluates overnight before size exclusion; also called ELMO2 WT; WT ELMO2; source: E. coli BL21 codon+, purified (glutathione resin, thrombin, S75 size exclusion)
T1 sequence (looked up): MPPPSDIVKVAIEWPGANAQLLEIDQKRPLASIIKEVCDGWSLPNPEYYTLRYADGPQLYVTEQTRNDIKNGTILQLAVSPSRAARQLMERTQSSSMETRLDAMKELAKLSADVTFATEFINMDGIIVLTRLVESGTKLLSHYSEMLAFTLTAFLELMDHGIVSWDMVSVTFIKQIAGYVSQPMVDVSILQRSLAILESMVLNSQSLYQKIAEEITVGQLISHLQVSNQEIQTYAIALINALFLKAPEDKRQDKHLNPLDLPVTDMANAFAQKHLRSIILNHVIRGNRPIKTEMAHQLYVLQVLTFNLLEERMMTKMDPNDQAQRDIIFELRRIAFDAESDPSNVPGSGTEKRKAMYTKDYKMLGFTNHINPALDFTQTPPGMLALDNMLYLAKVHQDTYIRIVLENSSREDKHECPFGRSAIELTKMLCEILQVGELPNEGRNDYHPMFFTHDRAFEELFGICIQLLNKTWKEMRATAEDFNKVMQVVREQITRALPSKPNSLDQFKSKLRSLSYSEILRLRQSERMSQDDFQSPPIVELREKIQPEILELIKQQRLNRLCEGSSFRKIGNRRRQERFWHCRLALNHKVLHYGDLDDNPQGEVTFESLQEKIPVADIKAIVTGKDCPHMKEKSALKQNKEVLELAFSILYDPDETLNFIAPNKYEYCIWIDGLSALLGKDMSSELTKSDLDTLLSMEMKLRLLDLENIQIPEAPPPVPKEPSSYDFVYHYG
Assay: ITC; 500 μM RHOG titrated into 40 μM Elmo2 full-length (WT or L43A); MicroCal ITC200, 25 °C; 20 mM Tris pH 7.5, 100 mM NaCl, 5 mM MgCl2, 1 mM DTT; one-site binding model
Details: both partners purified

B1: human RHOG (residues 1-179) (domain or fragment)
chain: not shown
notes: RHOG, human, residues 1-179, cloned into pDEST17 with a thrombin cleavage site between the 6xHIS-tag and the GTPase; For NMR uniformly 15N-labelled (M9 medium with 15NH4Cl) and loaded with GMPPNP; For ITC made in LB; also called RHOG-GMPPNP; HIS-RHOG; source: E. coli BL21 codon+, purified (Ni-NTA, thrombin cleavage, S75 size exclusion)
Binder B1 has a Kd of 10.3 µM.
